The target of test [1] is His6-TBC1D15 (UniProt Q8TC07). Kind of test: HA beads pulldown, immunoblot band quantification. The following applies: read off a plot. For orientation: In western blotting, separated proteins are transferred to a membrane and probed.
In test [2] the target is His6-TBC1D15 (UniProt Q8TC07). Kind of test: immunoprecipitation with Flag beads, immunoblot band quantification. The following applies: HA-SUMO2 co-expressed, read off a plot, scale: relative band intensity.
[3] abbreviates: + SulF (GST-SulF), parent: est. 0.16.

Consider three substances from paper PMC11115209.

UniProt Q8TC07, sequence (Q8TC07 whole entry, looked up): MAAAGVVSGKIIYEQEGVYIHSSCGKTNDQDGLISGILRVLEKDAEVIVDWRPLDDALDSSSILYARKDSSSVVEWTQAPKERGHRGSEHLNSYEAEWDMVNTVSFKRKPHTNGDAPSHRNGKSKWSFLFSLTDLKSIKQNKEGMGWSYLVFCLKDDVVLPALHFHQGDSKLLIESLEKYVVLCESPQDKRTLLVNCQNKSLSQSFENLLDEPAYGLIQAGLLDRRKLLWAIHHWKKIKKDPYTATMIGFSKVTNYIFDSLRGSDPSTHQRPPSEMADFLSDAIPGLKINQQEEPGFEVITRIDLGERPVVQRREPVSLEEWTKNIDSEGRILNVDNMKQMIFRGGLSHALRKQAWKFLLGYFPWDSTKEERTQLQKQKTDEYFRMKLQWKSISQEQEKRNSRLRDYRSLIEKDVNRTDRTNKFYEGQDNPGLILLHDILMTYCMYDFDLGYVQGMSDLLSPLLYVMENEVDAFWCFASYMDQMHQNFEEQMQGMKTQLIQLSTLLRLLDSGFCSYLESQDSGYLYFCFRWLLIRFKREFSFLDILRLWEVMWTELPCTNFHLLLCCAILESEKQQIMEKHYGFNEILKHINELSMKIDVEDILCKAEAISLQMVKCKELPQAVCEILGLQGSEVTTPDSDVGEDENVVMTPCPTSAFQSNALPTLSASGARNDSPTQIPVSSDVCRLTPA

Turning to Flag-Rab7 WT (Rab7 part of m4) Q67L, the response (relative ratio) came out at 1 in test [1] (Buffer added after 1 h incubation), 1.1 in test [1] (GST added after 1 h incubation), 0.34 in test [1] (GST-SulF added after 1 h incubation (competition)) and 1.1 in test [1] (GST-SulFIV/AA added after 1 h incubation (competition)). In addition, the response in test [2] (+ GST, parent: est. 0.25) amounted to 0.88; in test [2] (setting [3]), 0.48.

With “Flag-Rab7 WT (Rab7 part of m4) Q67L; K175R”, the response stood at 1 in test [2] (+ GST, parent: est. 0.25) and 1.1 in test [2] (setting [3]).

Turning to Flag-Rab7 WT (Rab7 part of m4) T22N, the response in test [2] (+ GST, parent: est. 0.25) was determined as 0.57; in test [2] (setting [3]) it was 0.31.
